In data set [1] the test system is MS2 coat protein. The experiment in a line: apparent KD of MS2 coat protein, switch ON state; designed switch direction (-1 OFF switch, 1 ON switch): -1; higher = weaker reporter binding. The following applies: FMN input: 0 or 200 uM; Eterna round: R93 (includes R88 designs). In outline: (§1)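 The designed RNA switches were transcribed on-chip from Illumina sequencing clusters. In 100 mM Tris-HCl pH 7.5, 80 mM KCl and 4 mM MgCl2, without or with constant ligand, they were titrated with SNAP-549-labelled MS2 coat protein from 0.7 or 1.5 nM to 3 µM in twofold steps. Apparent KD is the per-design median of normalised cluster binding-curve fits.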

The test system of data set [2] is MS2 coat protein. The experiment in a line: apparent KD of MS2 coat protein, switch OFF state (with FMN for OFF switches, without FMN for ON switches); designed switch direction (-1 OFF switch, 1 ON switch): -1; higher = weaker reporter binding. The following applies: FMN input: 0 or 200 uM; Eterna round: R93 (includes R88 designs). In outline:
as §1

In the case of “CAGUACUGAGGAUAUACAUGAGGAUCACCCAUGUGAAAAAGCUACGAAAGUAGCAAAUGUAGAAGGCAGUACUG [Ex3: 806]”, the “apparent KD of MS2 coat protein” value in data set [1] is 28.9 nM; in data set [2] it was 273 nM.

With “CAUAGGCGAGGAUAUACAUGAGGAUCACCCAUGUAAGGAAACCUGGCAGACUCAGAAUGUAGAAGGCGCACUGA [Ex3_Neo]”, the entries for the “apparent KD of MS2 coat protein” value in data set [1] and in data set [2] were 17.1 nM and 32.5 nM, respectively.

Take “CCCAUGUCAGGAUAUCAGUAGUAAAAAAAAAAAAUUACUACUGAGAAGGGACAUGAGGAUCACCCAUGUCACUU [EX4 320: Super Stable 20]”: the “apparent KD of MS2 coat protein” value in data set [1] was determined as 74.9 nM; in data set [2], 53.2 nM.

With “CGGAGGAAAGGAUAUACACAAUAAAAGAAGUGAUCCUUGAGACAUGAGGAUCACCCAUGUAGAAGGUUCACUGA [Zaza]”, the “apparent KD of MS2 coat protein” value worked out at 21.9 nM in data set [1] and 15.9 nM in data set [2].

As to “CGUUGGCGAGGAUAUACAUGAGGAUCACCCAUGUGAGAGAAAAAAGUGAGAAAGAAAAGUAGAAGGCGCUGACU [salish99-ex3-11]”, the “apparent KD of MS2 coat protein” value in data set [1] turned out to be 43.6 nM; in data set [2], 132 nM.

Regarding “CUAAAGCGAGGAUAUACAAUAAAAGGGAAUAAGGGAAAAAAACAUGAGGAUCACCCAUGUAGAAGGCGCCGAAA [Ex 2 #1]”, the entries for the “apparent KD of MS2 coat protein” value in data set [1] and in data set [2] were 25.6 nM and 26.5 nM, respectively.

For the sequence “CUCAAGUAAGGAUAUACAAGAAAAGAAGAGAAAGAAAAGAAGUAGAAGGUACAUGAGGAUCACCCAUGUAAGAA [EteRNA is fun!]”, the “apparent KD of MS2 coat protein” value was 26.7 nM in data set [1] and 22.2 nM in data set [2].

With “CUCAAGUAAGGAUAUCAAAGAAAAGAAGAGAAAGAAAAGAAUGAGAAGGUACAUGAGGAUCACCCAUGUAAGAA [EteRNA is fun!]”, the “apparent KD of MS2 coat protein” value in data set [1] was 35.2 nM; in data set [2], 23 nM.

With “CUCAAGUGAGGAUAUCAGUAGUAAAAAAAUAAAAUUACUACUGAGAAGGCACAUGAGGAUCACCCAUGUGCCAA [EX4 335: Super Stable 35]”, the “apparent KD of MS2 coat protein” value is 14.7 nM in data set [1] and 15.2 nM in data set [2].

For the sequence “CUCAAGUUAGGAUAUGGAAGAAAAGAAGAGAAAGAAAAGAACCAGAAGGAACAUGAGGAUCACCCAUGUAAGAA [EteRNA is fun!]”, the “apparent KD of MS2 coat protein” value is 58.1 nM in data set [1] and 62.7 nM in data set [2].

Turning to “CUCGUGUUAGGAUAUGGAUAGCCGUUUGACGAGCGAGGGCACUAGAAGGAACAUGAGGAUCACCCAUGUAAAAA [Velema]”, the “apparent KD of MS2 coat protein” value in data set [1] was found to be 29.4 nM; in data set [2], 28.1 nM.

Regarding “CUCUAGUCAGGAUAUGCAUGAAAUGAAGUGAAAGAAAAGAAGCAGAAGGGACAUGAGGAUCACCCAUGUUAGAA [EteRNA is fun!]”, the “apparent KD of MS2 coat protein” value in data set [1] stood at 29.6 nM; in data set [2] it was 38.3 nM.

As to “CUCUAGUGAGGAUAUCGAAGAAAAGAAGAGAAAGAAAAGAACGAGAAGGCACAUGAGGAUCACCCAUGUAAGAA [EteRNA is fun!]”, the “apparent KD of MS2 coat protein” value stood at 23.6 nM in data set [1] and 49 nM in data set [2].

As to “CUCUAGUUAGGAUAUCCAAGAAAAGAAAAGAAAGAAAAGAAGGAGAAGGAACAUGAGGAUCACCCAUGUAAGAA [EteRNA is fun!]”, the entries for the “apparent KD of MS2 coat protein” value in data set [1] and in data set [2] were 27.8 nM and 29.4 nM, respectively.

As for “CUCUAGUUAGGAUAUGCAAGAAAAGAAGAGAAAGAAAAGAAGCAGAAGGAACAUGAGGAUCACCCAUGUAAGAA [EteRNA is fun!]”, the “apparent KD of MS2 coat protein” value is 22.7 nM in data set [1] and 20.4 nM in data set [2].

Consider “CUCUUGUCAGGAUAUCAAAGAAAAGAAAAGAAAGAAAAGAAUGAGAAGGGACAUGAGGAUCACCCAUGUAAGAA [EteRNA is fun!]”, for which the “apparent KD of MS2 coat protein” value came to 32.1 nM in data set [1] and 34.8 nM in data set [2].

Consider “CUCUUGUGAGGAUAUCCAAGAAAAGAAAAGAAAGAAAAGAAGGAGAAGGCACAUGAGGAUCACCCAUGUAAGAA [EteRNA is fun!]”, for which the figures for the “apparent KD of MS2 coat protein” value in data set [1] and in data set [2] were 38.6 nM and 38.9 nM, respectively.

As to “CUCUUGUGAGGAUAUCUAAGAAAAGAAGAGAAAGAAAAGAAAGAGAAGGCACAUGAGGAUCACCCAUGUAAGAA [EteRNA is fun!]”, the figures for the “apparent KD of MS2 coat protein” value in data set [1] and in data set [2] were 29 nM and 56.1 nM, respectively.

As for “CUCUUGUGAGGAUAUUCAAGAAAAGAAGAGAAAGAAAAGAAGAAGAAGGCACAUGAGGAUCACCCAUGUAAGAA [EteRNA is fun!]”, the “apparent KD of MS2 coat protein” value in data set [1] is 25 nM; in data set [2], 30.8 nM.

Consider “CUUAUGUGAGGAUAUGGUGUUGGCCACAGGGAAAAGAUCCUCCAGAAGGCACAUGAGGAUCACCCAUGUAGUGA [Jolly's Folly 29 - Jieux - Exclusion 4]”, for which the “apparent KD of MS2 coat protein” value in data set [1] worked out at 69 nM; in data set [2] it was 160 nM.

Take “GAAAAACAUGAGGAUCACCCAUGUAAGGAUAUGCUAAAAAACGCAAAAAAAGCGAAUAGCAGAAGGUACAAAAG [Mat - Exclusion 1 - Eli mod - D82]”: the results for the “apparent KD of MS2 coat protein” value in data set [1] and in data set [2] were 22.3 nM and 78.1 nM, respectively.

As for “GAAAAACAUGAGGAUCACCCAUGUCAGGAUAUACAAAAUAAAAUAAAAAUAAAAUAAAGUAGAAGGGACAAAAG [Mat - Same state - Mayanna Mod - D107]”, the “apparent KD of MS2 coat protein” value in data set [1] stood at 36.7 nM; in data set [2], 49 nM.

On to “GAAAAACAUGAGGAUCACCCAUGUCAGGAUAUCGAAAAAAAUAAAAAAGAAAAGAAAACGAGAAGGGACAAAAG [Mat - Same state - Mayanna Mod - D112]”, for which the “apparent KD of MS2 coat protein” value in data set [1] came to 31.6 nM; in data set [2] it was 47.1 nM.

Consider “GAAAAACAUGAGGAUCACCCAUGUGAGGAUAUACGAAAGUAGAAGGCACUAAAAGAAAAGAGAAGGAGAAAAGA [Meechl Ex1 R2 m2]”, for which the “apparent KD of MS2 coat protein” value in data set [1] is 19.9 nM; in data set [2] it was 38.8 nM.

Take “GAAAAGCGAGGAUAUACAGAAAAAAAAACAAAAAAAGAAAAACAUGAGGAUCACCCAUGUAGAAGGCGCAAAAA [V1]”: the “apparent KD of MS2 coat protein” value worked out at 25.9 nM in data set [1] and 49.4 nM in data set [2].

As to “GAAAAGGAAGGAUAUACAAAGGGACCUUAUAAAAGAAGAAGACAUGAGGAUCACCCAUGUAGAAGGUCCAGAUA [Diusanatra]”, the “apparent KD of MS2 coat protein” value in data set [1] came out at 19.5 nM; in data set [2], 19.6 nM.

With “GAAAAGUCAGGAUAUACAGAUAAAAAAACGAAAAAAAAUCUGUAGAAGGGACAUGAGGAUCACCCAUGUAAAAG [Mat - Exclusion 4 - Mayanna - D101]”, the “apparent KD of MS2 coat protein” value in data set [1] was 47.3 nM; in data set [2], 33.2 nM.

For “GAAAAGUCAGGAUAUGCAGAUAAAAAAACGAAAAAAAAUCUGCAGAAGGGACAUGAGGAUCACCCAUGUAAAAA [Mat - Exclusion 4 - Mayanna - D109]”, the “apparent KD of MS2 coat protein” value worked out at 45.6 nM in data set [1] and 45.7 nM in data set [2].

Take “GAAAAGUGAGGAUAUGUCAAAAGUCACAAAAGUGACAAAAGACAGAAGGCACAUGAGGAUCACCCAUGUGGAAA [Mat - Exaclusion 4 - Eli mod - D51]”: the “apparent KD of MS2 coat protein” value worked out at 30.9 nM in data set [1] and 38.4 nM in data set [2].

For the sequence “GAAAAUGGAGGAUAUACGUACAUGUCAAAAGACGUGAAGGGACAUGAGGAUCACCCAUGUAGAAGGCUAAAAAG [Mat - Exclusion 2 - JL mod - D96]”, the “apparent KD of MS2 coat protein” value was 101 nM in data set [1] and 15.4 nM in data set [2].

Turning to “GAAACACAUGAGGAUCACCCAUGUCAGGAUAUGUAGAUAAAAAGAAAAUAAAAUAAAAACAGAAGGGACAAAAG [Mat - Same state - Mayanna Mod - D103]”, the “apparent KD of MS2 coat protein” value in data set [1] stood at 64.4 nM; in data set [2] it was 76.3 nM.

In the case of “GAAACUAGAGGAUAUACGAACAUGUCAAAAGACGUGAAGGGACAUGAGGAUCACCCAUGUAGAAGGCUAGAAAG [Mat - Exclusion 2 - JL mod - D100]”, the entries for the “apparent KD of MS2 coat protein” value in data set [1] and in data set [2] were 39.5 nM and 35.1 nM, respectively.

Regarding “GAAACUAGAGGAUAUACGUACAUGUCAAAAGACGUGAAGGGACAUGAGGAUCACCCAUGUAGAAGGCUAGAAAG [Mat - Exclusion 2 - JL mod - D98]”, the entries for the “apparent KD of MS2 coat protein” value in data set [1] and in data set [2] were 47.8 nM and 54.2 nM, respectively.

Turning to “GAAACUGGAGGAUAUACGAACAUGUCAAAAGACGUGAAGGGACAUGAGGAUCACCCAUGUAGAAGGCUAGAAAG [Mat - Exclusion 2 - JL mod - D99]”, the “apparent KD of MS2 coat protein” value in data set [1] worked out at 74.9 nM; in data set [2], 22.4 nM.

Take “GAAACUGGAGGAUAUACGUACAUGUCAAAAGACGUGAAGGGACAUGAGGAUCACCCAUGUAGAAGGCUAGAAAG [Mat - Exclusion 2 - JL mod - D97]”: the “apparent KD of MS2 coat protein” value in data set [1] amounted to 70.6 nM; in data set [2], 21.9 nM.

Turning to “GAAGAACAUGAGGAUCACCCAUGUCAGGAUAUACAGAAGGGAAUAAUAUAACCUGGAAGUAGAAGGGACAAGAA [Ex 1 May 44]”, the “apparent KD of MS2 coat protein” value is 30.2 nM in data set [1] and 65.4 nM in data set [2].

For “GACAUGCUAGGAUAUACAGGACAAAUUGGGCAUCCGCAUGGACAUGAGGAUCACCCAUGUAGAAGGAGUAGAAA [Inonmatixe]”, the results for the “apparent KD of MS2 coat protein” value in data set [1] and in data set [2] were 368 nM and 798 nM, respectively.

Regarding “GAGAUACAUGAGGAUCACCCAUGUGAGGAUAUCGGUUGGAGGAGGUGGAGGUUGAGUACGAGAAGGCACGGAUG [salish99-Ex1-10]”, the “apparent KD of MS2 coat protein” value in data set [1] was 24.9 nM; in data set [2], 31.1 nM.

Regarding “GCUGUCCUAGGAUAUACAUGAGGAUCACCCAUGUGAGAGAAAAAAGUGAGAAAGAAAAGUAGAAGGAGGGUAGG [salish99-ex3-104]”, the “apparent KD of MS2 coat protein” value in data set [1] amounted to 30.4 nM; in data set [2], 44.4 nM.

For the origin of these results see the supplement of paper PMC9170038.
